# Patent US20150299281A1 (ZEALAND PHARMA A S, published 2015)
# Numbered stars: 1 amine (or outer) side, 2 acyl side, 3 side chain; on linkers, the order of the positions; unused ones are H or OH. Square brackets hold non-standard residues; d marks the D form. Side chains are listed from the residue outwards. * marks the point of attachment. γGlu = O=C(O)[C@H](CCC(=O)[*:2])N[*:1]; Palmitoyl = CCCCCCCCCCCCCCCC(=O)*; Aib = CC(C)(N)C(=O)O
# T1: human GIP receptor (human, UniProt P48546 22-466)
# T1 sequence (looked up): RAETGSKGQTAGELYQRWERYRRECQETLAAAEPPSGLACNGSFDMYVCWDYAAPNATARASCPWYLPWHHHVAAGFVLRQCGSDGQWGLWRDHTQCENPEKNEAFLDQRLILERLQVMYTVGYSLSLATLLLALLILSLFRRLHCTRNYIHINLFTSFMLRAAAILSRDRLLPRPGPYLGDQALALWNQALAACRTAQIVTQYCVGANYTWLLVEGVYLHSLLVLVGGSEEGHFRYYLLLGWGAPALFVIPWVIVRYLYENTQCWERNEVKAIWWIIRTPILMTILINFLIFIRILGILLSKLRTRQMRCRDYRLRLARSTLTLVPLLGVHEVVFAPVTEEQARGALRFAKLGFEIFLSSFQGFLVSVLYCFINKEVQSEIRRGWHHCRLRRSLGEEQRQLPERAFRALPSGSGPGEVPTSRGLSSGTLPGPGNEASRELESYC
# B1: Compound 34 (peptide)
# peptide: H-Y[Aib]EGTFTSDYSIYLDEK([γGlu-Palmitoyl])AAKEFIEWLESA-NH2
# SMILES: CCCCCCCCCCCCCCCC(=O)N[C@@H](CCC(=O)NCCCC[C@H](NC(=O)[C@H](CCC(=O)O)NC(=O)[C@H](CC(=O)O)NC(=O)[C@H](CC(C)C)NC(=O)[C@H](Cc1ccc(O)cc1)NC(=O)[C@@H](NC(=O)[C@H](CO)NC(=O)[C@H](Cc1ccc(O)cc1)NC(=O)[C@H](CC(=O)O)NC(=O)[C@H](CO)NC(=O)[C@@H](NC(=O)[C@H](Cc1ccccc1)NC(=O)[C@@H](NC(=O)CNC(=O)[C@H](CCC(=O)O)NC(=O)C(C)(C)NC(=O)[C@@H](N)Cc1ccc(O)cc1)[C@@H](C)O)[C@@H](C)O)[C@@H](C)CC)C(=O)N[C@@H](C)C(=O)N[C@@H](C)C(=O)N[C@@H](CCCCN)C(=O)N[C@@H](CCC(=O)O)C(=O)N[C@@H](Cc1ccccc1)C(=O)N[C@H](C(=O)N[C@@H](CCC(=O)O)C(=O)N[C@@H](Cc1c[nH]c2ccccc12)C(=O)N[C@@H](CC(C)C)C(=O)N[C@@H](CCC(=O)O)C(=O)N[C@@H](CO)C(=O)N[C@@H](C)C(N)=O)[C@@H](C)CC)C(=O)O
# B2: Compound 39 (peptide)
# peptide: H-Y[Aib]EGTFTSDYSIYLEKKAQKEFVEWLLSA-NH2
# SMILES: CC[C@H](C)[C@H](NC(=O)[C@H](CO)NC(=O)[C@H](Cc1ccc(O)cc1)NC(=O)[C@H](CC(=O)O)NC(=O)[C@H](CO)NC(=O)[C@@H](NC(=O)[C@H](Cc1ccccc1)NC(=O)[C@@H](NC(=O)CNC(=O)[C@H](CCC(=O)O)NC(=O)C(C)(C)NC(=O)[C@@H](N)Cc1ccc(O)cc1)[C@@H](C)O)[C@@H](C)O)C(=O)N[C@@H](Cc1ccc(O)cc1)C(=O)N[C@@H](CC(C)C)C(=O)N[C@@H](CCC(=O)O)C(=O)N[C@@H](CCCCN)C(=O)N[C@@H](CCCCN)C(=O)N[C@@H](C)C(=O)N[C@@H](CCC(N)=O)C(=O)N[C@@H](CCCCN)C(=O)N[C@@H](CCC(=O)O)C(=O)N[C@@H](Cc1ccccc1)C(=O)N[C@H](C(=O)N[C@@H](CCC(=O)O)C(=O)N[C@@H](Cc1c[nH]c2ccccc12)C(=O)N[C@@H](CC(C)C)C(=O)N[C@@H](CC(C)C)C(=O)N[C@@H](CO)C(=O)N[C@@H](C)C(N)=O)C(C)C
# B3: Compound 35 (peptide)
# peptide: H-Y[Aib]EGTFTSDYSIYLDKK([γGlu-Palmitoyl])AQRAFVNWLLA[Aib]KPSSGAPPPS-NH2
# SMILES: CCCCCCCCCCCCCCCC(=O)N[C@@H](CCC(=O)NCCCC[C@H](NC(=O)[C@H](CCCCN)NC(=O)[C@H](CC(=O)O)NC(=O)[C@H](CC(C)C)NC(=O)[C@H](Cc1ccc(O)cc1)NC(=O)[C@@H](NC(=O)[C@H](CO)NC(=O)[C@H](Cc1ccc(O)cc1)NC(=O)[C@H](CC(=O)O)NC(=O)[C@H](CO)NC(=O)[C@@H](NC(=O)[C@H](Cc1ccccc1)NC(=O)[C@@H](NC(=O)CNC(=O)[C@H](CCC(=O)O)NC(=O)C(C)(C)NC(=O)[C@@H](N)Cc1ccc(O)cc1)[C@@H](C)O)[C@@H](C)O)[C@@H](C)CC)C(=O)N[C@@H](C)C(=O)N[C@@H](CCC(N)=O)C(=O)N[C@@H](CCCNC(=N)N)C(=O)N[C@@H](C)C(=O)N[C@@H](Cc1ccccc1)C(=O)N[C@H](C(=O)N[C@@H](CC(N)=O)C(=O)N[C@@H](Cc1c[nH]c2ccccc12)C(=O)N[C@@H](CC(C)C)C(=O)N[C@@H](CC(C)C)C(=O)N[C@@H](C)C(=O)NC(C)(C)C(=O)N[C@@H](CCCCN)C(=O)N1CCC[C@H]1C(=O)N[C@@H](CO)C(=O)N[C@@H](CO)C(=O)NCC(=O)N[C@@H](C)C(=O)N1CCC[C@H]1C(=O)N1CCC[C@H]1C(=O)N1CCC[C@H]1C(=O)N[C@@H](CO)C(N)=O)C(C)C)C(=O)O
# B4: Compound 37 (peptide)
# peptide: H-Y[Aib]EGTFTSDYSIYLEKKAAKDFVEWLLSA-NH2
# SMILES: CC[C@H](C)[C@H](NC(=O)[C@H](CO)NC(=O)[C@H](Cc1ccc(O)cc1)NC(=O)[C@H](CC(=O)O)NC(=O)[C@H](CO)NC(=O)[C@@H](NC(=O)[C@H](Cc1ccccc1)NC(=O)[C@@H](NC(=O)CNC(=O)[C@H](CCC(=O)O)NC(=O)C(C)(C)NC(=O)[C@@H](N)Cc1ccc(O)cc1)[C@@H](C)O)[C@@H](C)O)C(=O)N[C@@H](Cc1ccc(O)cc1)C(=O)N[C@@H](CC(C)C)C(=O)N[C@@H](CCC(=O)O)C(=O)N[C@@H](CCCCN)C(=O)N[C@@H](CCCCN)C(=O)N[C@@H](C)C(=O)N[C@@H](C)C(=O)N[C@@H](CCCCN)C(=O)N[C@@H](CC(=O)O)C(=O)N[C@@H](Cc1ccccc1)C(=O)N[C@H](C(=O)N[C@@H](CCC(=O)O)C(=O)N[C@@H](Cc1c[nH]c2ccccc12)C(=O)N[C@@H](CC(C)C)C(=O)N[C@@H](CC(C)C)C(=O)N[C@@H](CO)C(=O)N[C@@H](C)C(N)=O)C(C)C
# B5: Compound 38 (peptide)
# peptide: H-Y[Aib]EGTFTSDYSIYLEKKAAHDFVEWLLSA-NH2
# SMILES: CC[C@H](C)[C@H](NC(=O)[C@H](CO)NC(=O)[C@H](Cc1ccc(O)cc1)NC(=O)[C@H](CC(=O)O)NC(=O)[C@H](CO)NC(=O)[C@@H](NC(=O)[C@H](Cc1ccccc1)NC(=O)[C@@H](NC(=O)CNC(=O)[C@H](CCC(=O)O)NC(=O)C(C)(C)NC(=O)[C@@H](N)Cc1ccc(O)cc1)[C@@H](C)O)[C@@H](C)O)C(=O)N[C@@H](Cc1ccc(O)cc1)C(=O)N[C@@H](CC(C)C)C(=O)N[C@@H](CCC(=O)O)C(=O)N[C@@H](CCCCN)C(=O)N[C@@H](CCCCN)C(=O)N[C@@H](C)C(=O)N[C@@H](C)C(=O)N[C@@H](Cc1c[nH]cn1)C(=O)N[C@@H](CC(=O)O)C(=O)N[C@@H](Cc1ccccc1)C(=O)N[C@H](C(=O)N[C@@H](CCC(=O)O)C(=O)N[C@@H](Cc1c[nH]c2ccccc12)C(=O)N[C@@H](CC(C)C)C(=O)N[C@@H](CC(C)C)C(=O)N[C@@H](CO)C(=O)N[C@@H](C)C(N)=O)C(C)C
# B6: Compound 32 (peptide)
# peptide: H-Y[Aib]EGTFTSDYSI[Aib]LDKK([γGlu-Palmitoyl])AQRAFVEWLLAQGPSSGAPPPS-NH2
# SMILES: CCCCCCCCCCCCCCCC(=O)N[C@@H](CCC(=O)NCCCC[C@H](NC(=O)[C@H](CCCCN)NC(=O)[C@H](CC(=O)O)NC(=O)[C@H](CC(C)C)NC(=O)C(C)(C)NC(=O)[C@@H](NC(=O)[C@H](CO)NC(=O)[C@H](Cc1ccc(O)cc1)NC(=O)[C@H](CC(=O)O)NC(=O)[C@H](CO)NC(=O)[C@@H](NC(=O)[C@H](Cc1ccccc1)NC(=O)[C@@H](NC(=O)CNC(=O)[C@H](CCC(=O)O)NC(=O)C(C)(C)NC(=O)[C@@H](N)Cc1ccc(O)cc1)[C@@H](C)O)[C@@H](C)O)[C@@H](C)CC)C(=O)N[C@@H](C)C(=O)N[C@@H](CCC(N)=O)C(=O)N[C@@H](CCCNC(=N)N)C(=O)N[C@@H](C)C(=O)N[C@@H](Cc1ccccc1)C(=O)N[C@H](C(=O)N[C@@H](CCC(=O)O)C(=O)N[C@@H](Cc1c[nH]c2ccccc12)C(=O)N[C@@H](CC(C)C)C(=O)N[C@@H](CC(C)C)C(=O)N[C@@H](C)C(=O)N[C@@H](CCC(N)=O)C(=O)NCC(=O)N1CCC[C@H]1C(=O)N[C@@H](CO)C(=O)N[C@@H](CO)C(=O)NCC(=O)N[C@@H](C)C(=O)N1CCC[C@H]1C(=O)N1CCC[C@H]1C(=O)N1CCC[C@H]1C(=O)N[C@@H](CO)C(N)=O)C(C)C)C(=O)O
# B7: Compound 33 (peptide)
# peptide: H-Y[Aib]EGTFTSDYSIYLDKK([γGlu-Palmitoyl])AQRAFVEWLLAQGPSSGAPPPS-NH2
# SMILES: CCCCCCCCCCCCCCCC(=O)N[C@@H](CCC(=O)NCCCC[C@H](NC(=O)[C@H](CCCCN)NC(=O)[C@H](CC(=O)O)NC(=O)[C@H](CC(C)C)NC(=O)[C@H](Cc1ccc(O)cc1)NC(=O)[C@@H](NC(=O)[C@H](CO)NC(=O)[C@H](Cc1ccc(O)cc1)NC(=O)[C@H](CC(=O)O)NC(=O)[C@H](CO)NC(=O)[C@@H](NC(=O)[C@H](Cc1ccccc1)NC(=O)[C@@H](NC(=O)CNC(=O)[C@H](CCC(=O)O)NC(=O)C(C)(C)NC(=O)[C@@H](N)Cc1ccc(O)cc1)[C@@H](C)O)[C@@H](C)O)[C@@H](C)CC)C(=O)N[C@@H](C)C(=O)N[C@@H](CCC(N)=O)C(=O)N[C@@H](CCCNC(=N)N)C(=O)N[C@@H](C)C(=O)N[C@@H](Cc1ccccc1)C(=O)N[C@H](C(=O)N[C@@H](CCC(=O)O)C(=O)N[C@@H](Cc1c[nH]c2ccccc12)C(=O)N[C@@H](CC(C)C)C(=O)N[C@@H](CC(C)C)C(=O)N[C@@H](C)C(=O)N[C@@H](CCC(N)=O)C(=O)NCC(=O)N1CCC[C@H]1C(=O)N[C@@H](CO)C(=O)N[C@@H](CO)C(=O)NCC(=O)N[C@@H](C)C(=O)N1CCC[C@H]1C(=O)N1CCC[C@H]1C(=O)N1CCC[C@H]1C(=O)N[C@@H](CO)C(N)=O)C(C)C)C(=O)O
# How the values were obtained:
# human GLP-1 receptor = human GLP-1 receptor (human, UniProt P43220 24-463); assay: cell-based or functional assay
# human GIP receptor = target: T1, human GIP receptor; assay: cell-based or functional assay
Binder,"EC50, cAMP induction in HEK293 cells expressing human GLP-1 R (human GLP-1 receptor) [nM]","EC50, cAMP induction in HEK293 cells expressing human GIP R (human GIP receptor) [nM]"
B1,0.031,0.045
B2,0.011,0.0083
B3,0.022,0.028
B4,0.018,0.0097
B5,0.018,0.007
H-Y[Aib]EGTFISDYSIYLEKIAAKEFVNWLLAQK-NH2 [Compound 4],2.6,0.022
B6,0.018,0.012
B7,0.031,0.035
